Source: IntAct's records for PubMed 28497574

B1: Methylmalonic aciduria type A protein, mitochondrial (Homo sapiens), Q8IVH4 (parent)
chain: MPMLLPHPHQHFLKGLLRAPFRCYHFIFHSSTHLGSGIPCAQPFNSLGLHCTKWMLLSDGLKRKLCVQTTLKDHTEGLSDKEQRFVDKLYTGLIQGQRACLAEAITLVESTHSRKKELAQVLLQKVLLYHREQEQSNKGKPLAFRVGLSGPPGAGKSTFIEYFGKMLTERGHKLSVLAVDPSSCTSGGSLLGDKTRMTELSRDMNAYIRPSPTRGTLGGVTRTTNEAILLCEGAGYDIILIETVGVGQSEFAVADMVDMFVLLLPPAGGDELQGIKRGIIEMADLVAVTKSDGDLIVPARRIQAEYVSALKLLRKRSQVWKPKVIRISARSGEGISEMWDKMKDFQDLMLASGELTAKRRKQQKVWMWNLIQESVLEHFRTHPTVREQIPLLEQKVLIGALSPGLAADFLLKAFKSRD
partner: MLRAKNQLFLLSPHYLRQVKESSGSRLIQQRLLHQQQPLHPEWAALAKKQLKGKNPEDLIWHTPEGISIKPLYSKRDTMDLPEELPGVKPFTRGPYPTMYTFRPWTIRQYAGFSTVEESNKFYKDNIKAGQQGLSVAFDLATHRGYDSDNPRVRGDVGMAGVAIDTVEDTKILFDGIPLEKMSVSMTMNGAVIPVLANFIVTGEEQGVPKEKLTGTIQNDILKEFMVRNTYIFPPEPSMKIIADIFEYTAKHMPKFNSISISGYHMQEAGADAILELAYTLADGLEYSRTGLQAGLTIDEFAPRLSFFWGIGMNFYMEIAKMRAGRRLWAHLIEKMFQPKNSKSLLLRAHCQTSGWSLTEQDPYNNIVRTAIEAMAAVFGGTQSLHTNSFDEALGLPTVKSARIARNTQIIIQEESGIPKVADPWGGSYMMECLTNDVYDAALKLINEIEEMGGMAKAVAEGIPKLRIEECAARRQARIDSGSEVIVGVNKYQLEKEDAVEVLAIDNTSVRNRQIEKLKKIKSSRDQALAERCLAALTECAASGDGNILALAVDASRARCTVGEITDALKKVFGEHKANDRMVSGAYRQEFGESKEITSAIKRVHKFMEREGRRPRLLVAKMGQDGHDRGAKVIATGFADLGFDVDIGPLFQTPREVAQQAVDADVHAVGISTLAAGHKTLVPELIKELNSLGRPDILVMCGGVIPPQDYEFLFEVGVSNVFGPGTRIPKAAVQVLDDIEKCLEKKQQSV

Variants of: B1
Conditions: with muta_human MMUT

effect of a mutation on the interaction | Variant
disrupting interaction strength | G218E
disrupting interaction strength | V220M
disrupting interaction strength | G188R
disrupting interaction strength | Y207C
disrupting interaction strength | G147E
decreasing interaction strength | G192D
with no effect | R196Q
disrupting interaction strength | R209S
disrupting interaction strength | R98G
decreasing interaction strength | G274S
decreasing interaction strength | K276E
disrupting interaction strength | D292V
decreasing interaction strength | R359G
decreasing interaction strength | E250K

Variants of: B1
Conditions: with muta_human MMUT
Remark: another data set of the same source

effect of a mutation on the interaction | Variant
disrupting interaction strength | T243N
